Assay results as given in publication PMC11904002.

Molecular target: T1, Signal peptide peptidase (SPP), human, with a C-terminal myc-tag (human), Q8TCT9
T1 chain: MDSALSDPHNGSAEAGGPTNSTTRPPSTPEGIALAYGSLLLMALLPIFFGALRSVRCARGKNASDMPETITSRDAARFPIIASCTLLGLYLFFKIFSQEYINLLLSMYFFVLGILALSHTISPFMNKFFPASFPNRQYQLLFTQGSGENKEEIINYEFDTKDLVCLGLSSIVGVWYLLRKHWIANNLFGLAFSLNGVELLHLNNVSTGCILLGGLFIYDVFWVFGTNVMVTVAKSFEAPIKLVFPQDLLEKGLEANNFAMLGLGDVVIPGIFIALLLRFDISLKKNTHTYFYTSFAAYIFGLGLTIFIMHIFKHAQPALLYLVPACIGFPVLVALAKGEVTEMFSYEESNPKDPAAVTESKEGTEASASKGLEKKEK
Test: SDS-PAGE and Western blot of cell lysate; lysate of transfected HEK cells (50 mM Tris/HCl pH 7.4, 150 mM NaCl, 1% Triton X-100, 0.1% SDS); SDS-PAGE with tris-glycine buffer; SPP band at the size of a dimer
Settings: remark: other sources report otherwise

stoichiometry N: 2
B1: Signal peptide peptidase (SPP), human, with a C-terminal myc-tag, Q8TCT9-1 1-377 (enzyme)
chain: T1 chain
